Substitutions are numbered along the chain they refer to. Read-outs that look alike come from different tables or passages of the source.
B1: 人源化单克隆抗体6K1/3H2 (antibody, human IgG1, kappa, V domains shown)
VH: QVQLVQSGAELKKPGASVKISCKASGFNIKDYYMHWVRQRPEQGLEWIGWIDPENGNTIYAQKFQGRATITADTSTDTAYMELSSLTSEDTAVYYCAREGDGNYLWFAYWGQGTLVTVSS
VL: DIQMTQSPSSLSASVGGKVTITCKASQDINKYIAWYQQKPGKGPKLLIHYTSTLEPGVPSRFSGSGSGRDFTFSISSLQPEDIATYYCLHYDNLLTFGGGTKVEIKR
notes: Humanized from 6K/3H; expressed in 293F cells
B2: 人源化单克隆抗体6K3/3H1 (antibody, human IgG1, kappa, V domains shown)
VH: B1 VH with Q3K, K12V, I20L, E42G, I59M, Q62P, T69S, D77N, E82Q, T87R
VL: B1 VL with V15L, G17D, Q38H, G43A, R69T, Q79E, V103L
notes: as for B1
B3: 人源化单克隆抗体6K2/3H1 (antibody, human IgG1, kappa, V domains shown)
VH: B1 VH with Q3K, K12V, I20L, E42G, I59M, Q62P, T69S, D77N, E82Q, T87R
VL: B1 VL with M4L, G17D, T20I, G43A, P44L, P56T, R69T, F71Y, S77N, I105L
notes: as for B1
B4: 人源化单克隆抗体6K3/3H3 (antibody, human IgG1, kappa, V domains shown)
VH: EVQLVESGAEVVKPGALVKVSCKASGFNIKDYYMHWVRQRPGQGLEWIGWIDPENGNTIYDQKFQGRVSITADTSTNTAYLELSSLTSEDTAVYYCAREGDGNYLWFAYWGQGTLVTVSS
VL: B1 VL with V15L, G17D, Q38H, G43A, R69T, Q79E, V103L
notes: as for B1
B5: 人源化单克隆抗体6K2/3H3 (antibody, human IgG1, kappa, V domains shown)
VH: B4 VH
VL: B1 VL with M4L, G17D, T20I, G43A, P44L, P56T, R69T, F71Y, S77N, I105L
notes: as for B1
B6: 人源化单克隆抗体6K1/3H1 (antibody, human IgG1, kappa, V domains shown)
VH: B1 VH with Q3K, K12V, I20L, E42G, I59M, Q62P, T69S, D77N, E82Q, T87R
VL: B1 VL
notes: as for B1
B7: 人源化单克隆抗体6K2/3H2 (antibody, human IgG1, kappa, V domains shown)
VH: B1 VH
VL: B1 VL with M4L, G17D, T20I, G43A, P44L, P56T, R69T, F71Y, S77N, I105L
notes: as for B1
B8: 人源化单克隆抗体6K3/3H2 (antibody, human IgG1, kappa, V domains shown)
VH: B1 VH
VL: B1 VL with V15L, G17D, Q38H, G43A, R69T, Q79E, V103L
notes: as for B1
B9: 人源化单克隆抗体6K1/3H3 (antibody, human IgG1, kappa, V domains shown)
VH: B4 VH
VL: B1 VL
notes: as for B1
B10: 鼠源TSLP单克隆抗体7A9E3G10E5(6K/3H) (antibody, mouse IgG1, kappa)
heavy: EVKLVETGAELVRPGALVKLSCKTSGFNIKDYYMHWVKQRPEQGLEWIGWIDPENGNTIYDPKFQGKASITADTSSNTAYLHLSSLTSEDTAVYYCAREGDGNYLWFAYWGQGTLVTVSAAKTTPPSVYPLAPGSAAQTNSMVTLGCLVKGYFPEPVTVTWNSGSLSSGVHTFPAVLESDLYTLSSSVTVPSSPRPSETVTCNVAHPASSTKVDKKIVPRDCGCKPCICTVPEVSSVFIFPPKPKDVLTITLTPKVTCVVVDISKDDPEVQFSWFVDDVEVHTAQTQPREEQFNSTFRSVSELPIMHQDWLNGKEFKCRVNSAAFPAPIEKTISKTKGRPKAPQVYTIPPPKEQMAKDKVSLTCMITDFFPEDITVEWQWNGQPAENYKNTQPIMNTNGSYFVYSKLNVQKSNWEAGNTFTCSVLHEGLHNHHTEKSLSHSPGK
light: DILLTQSPSSLSASLGGKVIITCKASQDINKYIAWYQHKPGKGLRLLIHYTSTLEPGIPSRFSGSGSGRDYSFSISNLEPEDIATYYCLHYDNLLTFGDGTKLELKRADAAPTVSIFPPSSEQLTSGGASVVCFLNNFYPKDINVKWKIDGSERQNGVLNSWTDQDSKDSTYSMSSTLTLTKDEYERHNSYTCEATHKTSTSPIVKSFNRNEC
notes: also called 鼠源单克隆抗体6K/3H
B11: 人源化单克隆抗体1K3/1H2 (antibody, human IgG1, kappa, V domains shown)
VH: EVKLVESGGGLVQPGGSLKLSCAASGFTFSSFGMNWVRQAPGKGLEWVAYISSGSSIIYYADSVKGRFTISRDNPKNSLYLQMNSLRDEDTAVYYCAREPYGYDVYYFDYWGQGTTVTVSS
VL: DIVMTQSPASLAVSPGQRATISCKASQSIDYDGDSYMNWYQQKPGQPPKLLIYAASNLDTGIPARFSGSGSGTDFTLTISSVEEEDTATYYCQQSNEDPYTFGGGTKVEIKR
B12: 人源化单克隆抗体1K1/1H1 (antibody, human IgG1, kappa, V domains shown)
VH: B11 VH with K3Q, L18R, K19R, G42E, P75A, N84T, D88A, T116L
VL: B11 VL with P15L, S22T, T60S, I62V, S80H, S81P, E84P, T87F
notes: Humanized from 1K/1H; expressed in 293F cells
B13: 人源化单克隆抗体1K2/1H3 (antibody, human IgG1, kappa, V domains shown)
VH: B11 VH with K3Q, K19R, N35H, A49S, S63T, P75A, Y80F, D88S, T116L
VL: DIVLTQSPASLAVSLGQRATITCKASQSIDYDGDSYLNWYQQKPGQPPKLLIYAASNKDSGVPARFSGSGSGTDFTLTINPVEAEDFAVYYCQQSNEDPYTFGGGTKVEIKR
notes: as for B12
B14: 人源化单克隆抗体1K3/1H3 (antibody, human IgG1, kappa, V domains shown)
VH: B11 VH with K3Q, K19R, N35H, A49S, S63T, P75A, Y80F, D88S, T116L
VL: B11 VL
notes: as for B12
B15: 人源化单克隆抗体1K3/1H1 (antibody, human IgG1, kappa, V domains shown)
VH: B11 VH with K3Q, L18R, K19R, G42E, P75A, N84T, D88A, T116L
VL: B11 VL
notes: as for B12
B16: 人源化单克隆抗体1K1/1H3 (antibody, human IgG1, kappa, V domains shown)
VH: B11 VH with K3Q, K19R, N35H, A49S, S63T, P75A, Y80F, D88S, T116L
VL: B13 VL with L4M, L37M, K58L, N80H, A84P, V89T
notes: as for B12
B17: 人源化单克隆抗体1K2/1H1 (antibody, human IgG1, kappa, V domains shown)
VH: B11 VH with K3Q, L18R, K19R, G42E, P75A, N84T, D88A, T116L
VL: B13 VL
notes: as for B12
B18: 鼠源TSLP单克隆抗体3A1H2B2E1(1K/1H) (antibody, mouse IgG1, kappa)
heavy: EVKLVESGGGLVQPGGSRKLSCAASGFTFSSFGMHWVRQAPEKGLEWVAYISSGSSIIHYADTVKGRFTISRDNPKNTLFLQMTSLRSEDTAMYYCAREPYGYDVYYFDYWGQGTTITVSSAKTTPPSVYPLAPGSAAQTNSMVTLGCLVKGYFPEPVTVTWNSGSLSSGVHTFPAVLESDLYTLSSSVTVPSSPRPSETVTCNVAHPASSTKVDKKIVPRDCGCKPCICTVPEVSSVFIFPPKPKDVLTITLTPKVTCVVVDISKDDPEVQFSWFVDDVEVHTAQTQPREEQFNSTFRSVSELPIMHQDWLNGKEFKCRVNSAAFPAPIEKTISKTKGRPKAPQVYTIPPPKEQMAKDKVSLTCMITDFFPEDITVEWQWNGQPAENYKNTQPIMNTNGSYFVYSKLNVQKSNWEAGNTFTCSVLHEGLHNHHTEKSLSHSPGK
light: DIVMTQSPASLAVSLGQRATISCKASQSIDYDGDSYMNWYQQKPGQPPKLLIYAASNLDSGIPARFSGSGSGTDFTLNIHPVEEEDAATYYCQQSNEDPYTFGGGTKLEIKRADAAPTVSIFPPSSEQLTSGGASVVCFLNNFYPKDINVKWKIDGSERQNGVLNSWTDQDSKDSTYSMSSTLTLTKDEYERHNSYTCEATHKTSTSPIVKSFNRNEC
notes: also called 鼠源单克隆抗体1K/1H
B19: 嵌合抗体6K-3H (antibody, human IgG1, kappa)
heavy: not shown
light: DILLTQSPSSLSASLGGKVIITCKASQDINKYIAWYQHKPGKGLRLLIHYTSTLEPGIPSRFSGSGSGRDYSFSISNLEPEDIATYYCLHYDNLLTFGDGTKLELKRTVAAPSVFIFPPSDEQLKSGTASVVCLLNNFYPREAKVQWKVDNALQSGNSQESVTEQDSKDSTYSLSSTLTLSKADYEKHKLYACEVTHQGLSSPVTKSFNRGEC

Columns and labels:
rhTSLP-mFc融合蛋白 = target: T1, rhTSLP-mFc融合蛋白 (human); assay: ELISA: rhTSLP-mFc coated, goat anti-human IgG-HRP detection
T1 construct: Expressed in 293F cells and purified on protein A; also called 人重组TSLP蛋白

rhTSLP-hFc [1] = target: rhTSLP-hFc (human); assay: cell-based or functional assay
人TSLP = target: T2, 人TSLP (human, UniProt Q969D9 29-159); assay: BLI (ForteBio Blitz)
T2 construct: also called hTSLP; 人胸腺基质淋巴细胞生成素

rhTSLP-hFc [2] = target: rhTSLP-hFc (human); assay: competition ELISA: rhTSLP-hFc coated, antibody titrated against 2 μg/ml rhTSLPR-His, anti-His-HRP detection
rhTSLP-hFc [3] = target: rhTSLP-hFc (human); assay: cell-based or functional assay; remark: listed apart in the source
rhTSLP-hFc [4] = target: rhTSLP-hFc (human); assay: competition ELISA: rhTSLP-hFc coated, antibody titrated against 2 μg/ml rhTSLPR-His, anti-His-HRP detection; remark: listed apart in the source

| Binder | binding result (rhTSLP-mFc融合蛋白) | other results |
| --- | --- | --- |
| B1 | binds | – |
| B2 | binds | – |
| B3 | binds | – |
| B4 | binds | – |
| B5 | binds | – |
| B6 | binds | – |
| B7 | binds | – |
| B8 | binds | IC50, 抑制TSLP刺激的293F转染细胞STAT5-荧光素酶活性 (rhTSLP-hFc [1]): 0.182 µg/mL |
| B9 | binds | – |
| B10 | – | Kd (人TSLP): 20.1 nM; koff (人TSLP): 0.00506 s⁻¹; kon (人TSLP): 252000 M⁻¹ s⁻¹; IC50 (rhTSLP-hFc [2]): 0.428 µg/mL |
| B11 | – | IC50, 抑制TSLP刺激的293F转染细胞STAT5-荧光素酶活性 (rhTSLP-hFc [1]): 3.22 µg/mL |
| B12 | binds | – |
| B13 | binds | – |
| B14 | binds | – |
| B15 | binds | – |
| B16 | binds | – |
| B17 | binds | – |
| B18 | – | Kd (人TSLP): 1.75 nM; koff (人TSLP): 0.000732 s⁻¹; kon (人TSLP): 418000 M⁻¹ s⁻¹; IC50 (rhTSLP-hFc [2]): 0.324 µg/mL |
| B19 | – | IC50, 抑制TSLP刺激的293F转染细胞STAT5-荧光素酶活性 (rhTSLP-hFc [3]): 0.26 µg/mL; IC50 (rhTSLP-hFc [4]): 0.609 µg/mL |

Reference: patent publication CN111196850A (BEIJING HUIZHI HEYUAN BIOTECHNOLOGY CO LTD, dated 2020)
